Columns and labels:
[1] = target: GFP-JMY CT (aa821-983) (Mus musculus) (UniProt Q9QXM1); test: co-IP; as a9 but lysate/antibody mixture with 2 µM Ca2+; actin CoIP/GFP IP ratio as percent difference from the Ca2+-free (1 mM EGTA) condition
[2] = target: GFP-JMY WH2#1 (aa841-883) (Mus musculus) (UniProt Q9QXM1); test: as above
[3] = target: GFP-JMY CT (aa821-983) (Mus musculus) (UniProt Q9QXM1); test: co-IP; L929 lysate with GFP-JMY CT, continuous 2 µM Ca2+ for 2 h, compared with continuous EGTA; anti-GFP immunoprecipitation, quantitative immunoblot

Chain of GFP-JMY CT (aa821-983) (Mus musculus) (Q9QXM1 821-983): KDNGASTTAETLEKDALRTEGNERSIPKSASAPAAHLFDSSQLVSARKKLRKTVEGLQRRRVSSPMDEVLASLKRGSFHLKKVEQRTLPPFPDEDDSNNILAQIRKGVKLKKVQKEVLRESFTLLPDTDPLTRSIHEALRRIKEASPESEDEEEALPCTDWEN
Chain of GFP-JMY WH2#1 (aa841-883) (Mus musculus) (Q9QXM1 841-883): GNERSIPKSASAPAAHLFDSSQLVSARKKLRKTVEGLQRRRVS

percent change of coimmunoprecipitated actin with 2 µM Ca2+ against the Ca2+-free condition [1]: < -80%
percent change of coimmunoprecipitated actin with 2 µM Ca2+ against the Ca2+-free condition [2]: < -80%
percent change of coimmunoprecipitated actin with 2 µM Ca2+ against the Ca2+-free condition [3]: -80%
Substance: endogenous actin from L929 cells (from UniProt P60710 1-375) (natural protein)

Reference: PMC12098658
